Reference: article PMC9841416, “The recognition of structured elements by a conserved groove distant from domains associated with catalysis is an essential determinant of RNase E”

Molecular target: NTH-RNase E D346N (Escherichia coli (K12, P21513-1 in …, UniProt P21513 1-529, D346N))
Assay: EMSA; 15 mM CaCl2; 25 mM bis-Tris propane pH 8.3, 100 mM KCl, 15 mM CaCl2, 0.1% (v/v) Triton X-100, 1 mM DTT, 20% (v/v) glycerol, 37 C 20 min; 1% agarose gel in 1x TBE
Conditions: protein: recombinant; tags: N-terminal oligohistidine; chain copies: 4; single-stranded

GAGACAGUAUUUG (ssRNA, 5'-monophosphate) [5'-monophosphorylated LU13]
Kd: 56 nM
